Data reported in patent US12139520B2 (priority 2020, dated 2024).
Numbered stars: 1 amine (or outer) side, 2 acyl side, 3 side chain; on linkers, the order of the positions; unused ones are H or OH. Bridge positions count the residues as written; N and C are the ends. Square brackets hold non-standard residues; d marks the D form. Side chains are listed from the residue outwards. Ends that are not written are not given here. * marks the point of attachment. C20 diacid = O=C(O)CCCCCCCCCCCCCCCCCCC(=O)*; γGlu = O=C(O)[C@H](CCC(=O)[*:2])N[*:1]; Hyp = O=C(O)[C@@H]1C[C@@H](O)CN1; AEEA = NCCOCCOCC(=O)O; Aib = CC(C)(N)C(=O)O

T1: hAMY3R (human, UniProt P30988)
T1 sequence 1: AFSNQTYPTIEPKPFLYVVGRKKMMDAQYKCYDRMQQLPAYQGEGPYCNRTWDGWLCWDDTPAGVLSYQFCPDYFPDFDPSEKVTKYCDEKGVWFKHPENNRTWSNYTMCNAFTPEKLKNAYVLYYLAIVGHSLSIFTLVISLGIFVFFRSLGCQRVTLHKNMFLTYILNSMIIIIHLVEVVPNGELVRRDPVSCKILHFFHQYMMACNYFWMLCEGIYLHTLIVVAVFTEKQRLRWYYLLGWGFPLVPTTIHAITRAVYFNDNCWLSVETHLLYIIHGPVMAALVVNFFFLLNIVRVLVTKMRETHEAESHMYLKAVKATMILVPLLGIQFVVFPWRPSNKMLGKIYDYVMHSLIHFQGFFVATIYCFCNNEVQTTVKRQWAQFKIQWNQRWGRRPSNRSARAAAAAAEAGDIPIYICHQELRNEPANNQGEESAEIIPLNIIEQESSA
T1 sequence 2: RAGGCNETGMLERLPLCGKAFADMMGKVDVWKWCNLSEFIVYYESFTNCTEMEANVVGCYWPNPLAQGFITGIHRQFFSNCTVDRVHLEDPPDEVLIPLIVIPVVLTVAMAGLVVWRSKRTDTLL

B1: SEQ ID NO: 102 (peptide)
peptide: KCNTATCTVQRLAHQIYQFTDKDKDNVAPRTEVGSNGY
B2: SEQ ID NO: 100 (peptide)
peptide: {C20 diacid-γGlu}-KCNTATCTVQRLAEQIYQFTDKDKDQVAPPTNVGSNG[Hyp]-NH2
modifications: disulfide 2-7 (inferred); ends not checked
B3: SEQ ID NO: 114 (peptide)
peptide: KCNTATCTVQRLAHQIYQATDKDKDNVAPPTNVGSNG[Hyp]-NH2
modifications: disulfide 2-7 (inferred); ends not checked
B4: SEQ ID NO: 118 (peptide)
peptide: GCRTGTCTVQRLAHQIYQFTDKDKDNVAPRTNIGPQG[Hyp]-NH2
modifications: disulfide 2-7 (inferred); ends not checked
B5: SEQ ID NO: 11 (peptide)
peptide: {C20 diacid-γGlu}-KCNTATCTVQRLAHQINQFTDKDKDNVAPPTNVGSNG[Hyp]-NH2
modifications: disulfide 2-7 (inferred); ends not checked
B6: SEQ ID NO: 103 (peptide)
peptide: {C20 diacid-γGlu}-KCNTATCTVVRLAHQIYQFTDKDKDNVAPPTNVGSNG[Hyp]-NH2
modifications: disulfide 2-7 (inferred); ends not checked
B7: SEQ ID NO: 110 (peptide)
peptide: {C20 diacid-γGlu}-KCNTATCTVQRLAHQIEQFTDKDKDNVAPPTNVGSNG[Hyp]-NH2
modifications: disulfide 2-7 (inferred); ends not checked
B8: SEQ ID NO: 111 (peptide)
peptide: GCRFGTCTVQRLAHQIYQFTDKDKDNVAPRTKIGPQG[Hyp]-NH2
modifications: disulfide 2-7 (inferred); ends not checked
B9: SEQ ID NO: 117 (peptide)
peptide: GCRFGTCTVQRLAHFLYQFTDKDKDNVAPRTKVGSNGY
B10: SEQ ID NO: 108 (peptide)
peptide: {C20 diacid-γGlu}-KCNTATCTVQRLAEQIYQFTDKDKANVAPPTNVGSNG[Hyp]-NH2
modifications: disulfide 2-7 (inferred); ends not checked
B11: SEQ ID NO: 105 (peptide)
peptide: {C20 diacid-γGlu}-KCNTATCTVQRLAHQIAQFADKDKDNVAPPTNVGSNG[Hyp]-NH2
modifications: disulfide 2-7 (inferred); ends not checked
B12: SEQ ID NO: 112 (peptide)
peptide: {C20 diacid-γGlu}-KCNTATCTVDRLAHQIAQFTDKDKDNVAPPTNVGSNG[Hyp]-NH2
modifications: disulfide 2-7 (inferred); ends not checked
B13: SEQ ID NO: 115 (peptide)
peptide: GCRTGTCTVQRLAHQIYQFTDKDKDNVAPRTKIGPNG[Hyp]-NH2
modifications: disulfide 2-7 (inferred); ends not checked
B14: SEQ ID NO: 120 (peptide)
peptide: {C20 diacid-γGlu}-KCNTATCTVQRLAHQIAQFTDKDKDPVAPPTNVGSNS[Hyp]-NH2
modifications: disulfide 2-7 (inferred); ends not checked
B15: SEQ ID NO: 107 (peptide)
peptide: {C20 diacid-γGlu}-KCNTATCTVARLAHQIAQFTDKDKDNVAPPTNVGSNG[Hyp]-NH2
modifications: disulfide 2-7 (inferred); ends not checked
B16: SEQ ID NO: 109 (peptide)
peptide: GCRTGTCTVQRLAHQIYQFTDKDKDNVAPRTNVGPQGY
B17: SEQ ID NO: 116 (peptide)
peptide: GCRFGTCTVQRLAHQIYQFTDKDKDNVAPRTNVSPQGY
B18: SEQ ID NO: 101 (peptide)
peptide: KCNAATCTVQRLAEQIYQFTDKDKDNVAPPTNVGSNG[Hyp]-NH2
modifications: disulfide 2-7 (inferred); ends not checked
B19: SEQ ID NO: 104 (peptide)
peptide: {C20 diacid-γGlu}-KCNTATCTVQRLAHQIYQFYDKDKDNVAPPTNVGSNG[Hyp]-NH2
modifications: disulfide 2-7 (inferred); ends not checked
B20: SEQ ID NO: 119 (peptide)
peptide: {C20 diacid-γGlu}-KCNT[Aib]TCTVQRLAHQIYQFTDKDKDNVAPPTNVGSNG[Hyp]-NH2
modifications: disulfide 2-7 (inferred); ends not checked
B21: SEQ ID NO: 113 (peptide)
peptide: GCRFGTCTVQRLAHQIYQFTDKDKDNVAPRTKISPNG[Hyp]-NH2
modifications: disulfide 2-7 (inferred); ends not checked
B22: SEQ ID NO: 12 (peptide)
peptide: KCNTATCTVQRLAEQIYQFTDKDKDNK([AEEA-AEEA-γGlu-C20 diacid])APPTNVGSNG[Hyp]-NH2
modifications: disulfide 2-7 (inferred); ends not checked
B23: SEQ ID NO: 106 (peptide)
peptide: {C20 diacid-γGlu}-KCNTATCTVQRLAEQIYQFTAKDKDNVAPPTNVGSNG[Hyp]-NH2
modifications: disulfide 2-7 (inferred); ends not checked

Key:
hAMY3R = target: T1, hAMY3R; assay: cell-based or functional assay
hAM1R = hAM1R (human, UniProt Q16602); assay: cell-based or functional assay

| Binder | hAMY3R EC50 (cAMP) (hAMY3R) | hAM1R EC50 (cAMP) (hAM1R) |
| --- | --- | --- |
| B1 | 0.018 nM | > 5000 nM |
| B2 | 0.017 nM | > 5000 nM |
| B3 | 0.022 nM | > 5000 nM |
| B4 | 0.024 nM | 2980 nM |
| B5 | 0.007 nM | > 5000 nM |
| B6 | 0.018 nM | > 5000 nM |
| B7 | 0.02 nM | > 5000 nM |
| B8 | 0.021 nM | 2980 nM |
| B9 | 0.024 nM | 51.6 nM |
| B10 | 0.019 nM | > 5000 nM |
| B11 | 0.018 nM | > 5000 nM |
| B12 | 0.021 nM | > 5000 nM |
| B13 | 0.023 nM | 130 nM |
| B14 | 0.025 nM | > 5000 nM |
| B15 | 0.019 nM | 647 nM |
| B16 | 0.02 nM | 2980 nM |
| B17 | 0.024 nM | 48.2 nM |
| B18 | 0.017 nM | > 5000 nM |
| B19 | 0.018 nM | > 5000 nM |
| B20 | 0.024 nM | > 5000 nM |
| B21 | 0.022 nM | 2980 nM |
| B22 | 0.007 nM | > 5000 nM |
| B23 | 0.018 nM | > 5000 nM |
